In article PMC9812398:

B1: GFP-L-TOG2-S (domain or fragment)
chain: KVPAPKTSGNPANSARKPGSAGGPKVGAGASKEGGAGAVDEDDFIKAFTDVPSIQIYSSRELEETLNKIREILSDDKHDWDQRANALKKIRSLLVAGAAQYDCFFQHLRLLDGALKLSAKDLRSQVVREACITVAHLSTVLGNKFDHGAEAIVPTLFNLVPNSAKVMATSGCAAIRFIIRHTHVPRLIPLITSNCTSKSVPVRRRSFEFLDLLLQEWQTHSLERHAAVLVETIKKGIHDADAEARVEARKTYMGLRNHFPGEAETLYNSLEPSYQKSLQTYLKSSGSVASLPQSDRSSSSSQESLNRPFSSKWSTANPSTVAGRVSAGSSKASSLPGSLQRSRSDIDVNAAAGAKAHHAAGQSVRSGRLGAGALNAGSYASLEDTSDKLDGTASEDGRVRAKLSAPLAGMGNAKADSRGRSRTKMVSQSQPGSRSGSPGRVLTTTALSTVSSGVQRVLVNSASAQKRSKIPRSQGCSREASPSRLSVARSSRIPRPSVSQGCSREASRESSRDTSPVRSFQPLGPGYGISQSS

What was measured:
[1] = target: stabilized microtubules polymerized from cow brain tubulin (cow) (UniProt Q6B856); assay: TIRF microscopy of microtubule end decoration
[2] = target: human full-length GFP-CLASP2α (human) (UniProt O75122); assay: TIRF microscopy of microtubules on DNA origami-clustered protein

Molecule | end brightness [1] [a.u.] | time for which half of the microtubules keep end association [2] [h]
human full-length GFP-CLASP2α (from UniProt O75122-3 1-1515) (natural protein) | 594 | –
stabilized microtubules polymerized from cow brain tubulin (from UniProt Q6B856 1-445) (complex) | – | 4
B1 | 757 | –
